In test [1] the target is T1, human Gro-alpha (human, UniProt P09341 35-107).
T1 construct: also called Gro-α; hGROα
The test is described as follows: TRFIA, chemokine coated on plate, europium anti-human IgG detection; antibody concentration not given.

Test [2] deals with T2, human Gro-gamma (human, UniProt P19876 35-107).
T2 construct: also called Gro-γ; CXCL3
The test is described as above.
Method: (§1) Briefly, each antigen (human IL-8, Gro-alpha, Gro-beta, Gro-gamma, GCP-2, and ENA-78, and hIL-18 when used as negative control) is individually coated onto a 96-well immunofluorescent plate. The plates are then washed and blocked with a commercially available blocking solution. Blocking solution is emptied and samples containing the mAb are added into each well and incubated for 40 to 60 minutes (this allows the mAb to bind to the target chemokines). The plates are then washed again and a detection Ab is added to each well. […] The detection antibody is conjugated to either europium or biotin. Following another round of washing, to remove unbound detection Ab, a solution of streptavidin-europium was added to biotin detected assays. Streptavidin-europium binds to the biotin allowing for detection. After a final wash to remove unbound streptavidin-europium, or in the case of the humanized MAb assay after the europium conjugate secondary is washed, each well is filled with a chelating detergent solution to activate the europium producing fluorescence. The greater the fluorescence recorded is directly proportionate to the amount of detection Ab present in the well which is directly linked and proportionate to the amount of the chemokine binding mAb.

Test [3] concerns the target T3, human GCP-2 (human, UniProt P80162 38-114, limits assumed).
T3 construct: also called hGCP-2; CXCL6
The test is described as above.
Method: as §1

Test [4] has as its target T4, human ENA-78 (human, UniProt P42830 37-114, limits assumed).
T4 construct: also called hENA-78; CXCL5
Nature of the test: Biacore SPR, Protein A capture.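 Further: purified antibody captured on Protein A immobilised on a CM5 chip, chemokine analytes flowed over at defined concentrations, buffer injection for double referencing, kinetics fitted with a 1:1 binding model.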
From the text: (§2) A Protein A capture method was used to generate kinetics for the humanised and chimeric constructs as follows:
(§3) Protein A is immobilised on a CM5 chip by primary amine coupling in accordance with the manufactures instructions. Purified humanised or chimeric antibody is captured on the Protein A surface. After capture defined concentrations of each analyte (IL8, Gro-β and ENA-78) are passed over the antibody captured surface, a separate capture event is used for each analyte injection. […] An injection of buffer is also injected over the antibody captured surface and this is used for double referencing. The data is analysed using the analysis software inherent to the machine, using the 1:1 model of binding.

For test [5], the target named is T5, human IL-8 (human, UniProt P10145 28-99, limits assumed).
T5 construct: also called hIL-8; hIL8
Nature of the test: Biacore SPR, Protein A capture. (In SPR one partner is held on a chip, and binding of the other changes the refractive index at the surface.)
From the text: as §2, §3

For test [6], the target named is T6, human Gro-beta (human, UniProt P19875 35-107).
T6 construct: also called Gro-β; hGROβ
The test is described as follows: Biacore SPR, BE: mAb amine-coupled.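 Further: analytes IL-8, Gro-b and ENA-78 flowed at defined concentrations over the antibody surface, buffer injection used for double referencing, kinetics fitted to a 1:1 binding model.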
Method: (§4) For experiment designated BE, purified antibodies directly immobilized to the chip by amine coupling was used.
(§5) Defined concentrations of each analyte (IL8, Gro-band ENA-78) are passed over the immobilized or captured antibody surface, a separate capture event is used for each analyte injection. After each injection of analyte the surface is regenerated by injection
(§6) An injection of buffer is also injected over the antibody captured surface and this is used for double referencing. The data is analyzed using the analysis software inherent to the machine, using the 1:1 model of binding.

Test [7] has as its target T4, human ENA-78. The test is described as follows: Biacore SPR, BE: mAb amine-coupled.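 Further: analytes IL-8, Gro-b and ENA-78 flowed at defined concentrations over the antibody surface, buffer injection used for double referencing, kinetics fitted to a 1:1 binding model.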
Method: as §4, §5, §6
Test [8] has as its target T5, human IL-8. Nature of the test: Biacore SPR, BE: mAb amine-coupled.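 Further: analytes IL-8, Gro-b and ENA-78 flowed at defined concentrations over the antibody surface, buffer injection used for double referencing, kinetics fitted to a 1:1 binding model.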
Method: as §4, §5, §6
Test [9] deals with T6, human Gro-beta. The test is described as follows: Biacore SPR, KL: anti-mouse Fc capture.
Method: (§7) Supernatant or purified antibody from parental mouse mAb is captured on the anti-mouse IgG-Fc surface. Defined concentrations of each analyte (IL8, Gro-band ENA-78) are passed over the immobilized or captured antibody surface, a separate capture event is used for each analyte injection. After each injection of analyte the surface is regenerated by injection
as §6
Test [10] addresses T4, human ENA-78. The test is described as follows: Biacore SPR, KL: anti-mouse Fc capture.
Method: as §7, §6
In test [11] the target is T5, human IL-8. Nature of the test: Biacore SPR, KL: anti-mouse Fc capture.
Method: as §7, §6
Test [12] deals with T1, human Gro-alpha. Nature of the test: TRFIA, chemokine coated on plate, biotinylated anti-mouse IgG and streptavidin-europium detection.
Method: as §1
For test [13], the target named is T6, human Gro-beta. The description is as above.
Method: as §1
The target in test [14] is T2, human Gro-gamma. The description is as above.
Method: as §1
Test [15] addresses T4, human ENA-78. Described as above.
Method: as §1
Test [16] addresses T5, human IL-8. The test is described as above.
Method: as §1
A further test addresses T7, hIL-18 (Homo sapiens, UniProt Q14116).
T7 construct: Printed on the sheets: 'hIL-18 run as a negative control'; also called human IL-18
The test is described as follows: TRFIA, hIL-18 coated on plate, biotinylated anti-human IgG Fab2 reagent and streptavidin-europium detection.

The target in test [17] is T1, human Gro-alpha. Nature of the test: TRFIA, chemokine coated on plate, biotinylated anti-human IgG Fab2 reagent and streptavidin-europium detection.
Method: as §1
Test [18] deals with T6, human Gro-beta. The description is as above.
Method: as §1
Test [19] has as its target T2, human Gro-gamma. The description is as above.
Method: as §1
Test [20] addresses T4, human ENA-78. The test is described as above.
Method: as §1
Test [21] concerns the target T3, human GCP-2. The description is as above.
Method: as §1
Test [22] addresses T5, human IL-8. The description is as above.
Method: as §1
In test [23] the target is T6, human Gro-beta. Nature of the test: Biacore SPR, BE: mAb amine-coupled; BE: mAb amine-coupled.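 Further: analytes IL-8, Gro-b and ENA-78 flowed at defined concentrations over the antibody surface, buffer injection used for double referencing, kinetics fitted to a 1:1 binding model.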
Method: as §4, §5, §6
For test [24], the target named is T6, human Gro-beta. Nature of the test: Biacore SPR, KL: anti-mouse Fc capture; KL: anti-mouse Fc capture.
Method: as §7, §6

Substitutions are numbered along the chain they refer to. Several values for one entry are separate records, joined by “and”; a condition that tells them apart may be missing. Equal values may be shown once.

Method for hIL-18: as §1

B1: humanized penta-specific antibody construct H0M0 (antibody, human IgG1, kappa, V domains shown)
VH: QVQLVQSGAEVKKPGASVKVSCKASGYTFTNYWIVWVRQAPGQGLEWMGDLYSGGGYTFYSENFKGRVTMTRDTSTSTVYMELSSLRSEDTAVYYCARSGYDRTWFAHWGQGTLVTVSS
VL: EIVLTQSPATLSLSPGERATLSCQASQDIESYLSWYQQKPGQAPRLLIYYATRLADGIPARFSGSGSGTDFTLTISSLEPEDFAVYYCLQHGESPPTFGQGTKLEIKR
notes: H0 mature heavy chain with M0 mature light chain
On to B1, for which the binding result with human Gro-alpha [1], in the test with human Gro-gamma [2] and with human GCP-2 [3] was “binds” each time.

B2: humanized penta-specific antibody construct H0L7 (antibody, human IgG1, kappa, V domains shown)
VH: B1 VH
VL: DIQMTQSPSSLSASVGDRVTITCQASQDIESYLSWYQQKPGKAPKLLIYYATRLADGVPSRFSGSGSGTDFTLTISSLQPEDFATYYCLQHGESPPTFGQGTKLEIKR
notes: H0 mature heavy chain with L7 mature light chain
On to B2, for which the binding result with human Gro-alpha [1], with human Gro-gamma [2] and with human GCP-2 [3] was “binds” throughout.

B3: humanized penta-specific antibody construct H0L8 (antibody, human IgG1, kappa, V domains shown)
VH: B1 VH
VL: B2 VL with L73F, F83I
notes: H0 mature heavy chain with L8 mature light chain
In the case of B3, the Kd was 0.1 nM and 0.0941 nM and 0.0912 nM and 0.0755 nM with human ENA-78 [4]; 0.188 nM and 0.143 nM and 0.175 nM and 0.152 nM with human IL-8 [5]. Besides, the koff with human ENA-78 [4] is 0.000288 s⁻¹ and 0.000266 s⁻¹ and 0.000269 s⁻¹ and 0.000248 s⁻¹; with human IL-8 [5], 0.00111 s⁻¹ (2×) and 0.00113 s⁻¹ and 0.00119 s⁻¹. In addition, the kon with human ENA-78 [4] was 2.88e+06 M⁻¹ s⁻¹ and 2.82e+06 M⁻¹ s⁻¹ and 2.95e+06 M⁻¹ s⁻¹ and 3.29e+06 M⁻¹ s⁻¹; with human IL-8 [5] it was 5.9e+06 M⁻¹ s⁻¹ and 7.89e+06 M⁻¹ s⁻¹ and 6.8e+06 M⁻¹ s⁻¹ and 7.3e+06 M⁻¹ s⁻¹. In addition, the binding result in the test with human Gro-alpha [1], with human Gro-gamma [2] and with human GCP-2 [3] was “binds” in each case.

B4: humanized penta-specific antibody construct H0L10 (antibody, human IgG1, kappa, V domains shown)
VH: B1 VH
VL: B2 VL with T69Q, F71Y
notes: H0 mature heavy chain with L10 mature light chain
Turning to B4, in the test with human ENA-78 [4], the Kd is 0.0899 nM and 0.0722 nM and 0.0742 nM and 0.0613 nM. For the same molecule, the binding result with human Gro-alpha [1], with human Gro-gamma [2] and with human GCP-2 [3] was “binds” each time.

B5: mouse monoclonal antibody 656.35 (antibody, IgG2a, V domains shown)
VH: QVQLQQSGAELVRPGTSVTISCKASGYTFTNYWIVWVKQRPGHGLEWIGDLYSGGGYTFYSENFKGKATLTADTSSSTAYMHLISLTSEDSAVYFCARSGYDRTWFAHWGQGSLVTVSA
VL: DIKMTQSPSSMSASLGERVTITCQASQDIESYLSWYQQKPWKSPKTLIYYATRLADGVPSRFSGSGSGQDYSLTISSLESDDTATYYCLQHGESPPTFGAGTKLELKR
notes: Murine hybridoma mAb
For B5, the Kd is 0.111 nM in the test with human Gro-beta [6]; 0.271 nM with human ENA-78 [7]; 0.0839 nM in the test with human IL-8 [8]; 0.526 nM in the test with human Gro-beta [9]; 1.74 nM in the test with human ENA-78 [10]; 0.964 nM with human IL-8 [11]. For the same molecule, the koff was 0.00146 s⁻¹ with human Gro-beta [6]; 0.000796 s⁻¹ in the test with human ENA-78 [7]; 0.000687 s⁻¹ in the test with human IL-8 [8]; 0.00201 s⁻¹ in the test with human Gro-beta [9]; 0.00187 s⁻¹ in the test with human ENA-78 [10]; 0.00148 s⁻¹ with human IL-8 [11]. Further, the kon with human Gro-beta [6] came out at 1.32e+07 M⁻¹ s⁻¹; with human ENA-78 [7] it was 2.94e+06 M⁻¹ s⁻¹; with human IL-8 [8], 8.19e+06 M⁻¹ s⁻¹; with human Gro-beta [9], 3.82e+06 M⁻¹ s⁻¹; with human ENA-78 [10], 1.07e+06 M⁻¹ s⁻¹; in the test with human IL-8 [11], 1.53e+06 M⁻¹ s⁻¹. The “EC50 (read off the curve)” value in the test with human Gro-alpha [12] was ~30 ng/mL; in the test with human Gro-beta [13], ~20 ng/mL; with human Gro-gamma [14], ~20 ng/mL; in the test with human ENA-78 [15] it was ~20 ng/mL; with human IL-8 [16], ~30 ng/mL.

B6: Chimera Antibody (HcLc) made from 656.35 (antibody, human IgG1, kappa, V domains shown)
VH: B5 VH with A119S
VL: B5 VL
notes: also called the Chimera Antibody; chimera (HcLc)
As for B6, in the test with hIL-18, the binding result is recorded as “no binding (tested: 1000 ng/ml)”. The “EC50 (read off the curve)” value with human Gro-alpha [17] was ~50 ng/mL; with human Gro-beta [18] it was ~40 ng/mL; with human Gro-gamma [19], ~40 ng/mL; in the test with human ENA-78 [20], ~40 ng/mL; with human GCP-2 [21], ~40 ng/mL; with human IL-8 [22], ~70 ng/mL.

B7: mouse monoclonal antibody 81.1 (antibody, IgG2a, V domains shown)
VH: EVQLQQSGPELEKPGASVKISCKASGYSFTVYGMNWVRQSNGKSLEWIGNFDPYFSVTSYNQKFQDKATLTVDKSSSTAYMQLKNLTSEDSAVYFCARGSWETIFAYWGQGTLVTVSA
VL: QAVVTQESALTTSPGETVTLTCRSSTGAVTTSNYANWVQEKPDHLFTGLIGGTNNRAPGVPARFSGSLIGDKAALTITGAQTEDEAIYFCALWYSNHVFGGGTKLTVLQ
notes: Murine hybridoma mAb
On to B7, for which the dissociation constant Kd in the test with human Gro-beta [6] was 0.0898 nM; in the test with human ENA-78 [7] it was 0.0239 nM; with human IL-8 [8] it was 55.5 nM; in the test with human Gro-beta [9], 0.113 nM; with human ENA-78 [10] it was 0.616 nM; with human IL-8 [11] it was 4.8 nM. The koff was found to be 0.000489 s⁻¹ with human Gro-beta [6]; 3.94e-06 s⁻¹ with human ENA-78 [7]; 0.108 s⁻¹ with human IL-8 [8]; 0.000312 s⁻¹ with human Gro-beta [9]; 0.000376 s⁻¹ with human ENA-78 [10]; 0.00932 s⁻¹ in the test with human IL-8 [11]. For the same molecule, the on-rate (kon) with human Gro-beta [6] stood at 5.44e+06 M⁻¹ s⁻¹; with human ENA-78 [7], 165000 M⁻¹ s⁻¹; with human IL-8 [8], 1.95e+06 M⁻¹ s⁻¹; with human Gro-beta [9], 2.76e+06 M⁻¹ s⁻¹; with human ENA-78 [10], 611000 M⁻¹ s⁻¹; in the test with human IL-8 [11], 1.95e+06 M⁻¹ s⁻¹.

B8: mouse monoclonal antibody 197.2 (antibody, IgG2a, V domains shown)
VH: EFQLQQSGPELVKPGASVKISCKASGYSFTDYNMNWVKQSNGKSLEWIGVINPKYGTTSYNQKFKGKATLTVDQSSNTAYMQLSSLTSEDSAVYHCARGMGLLFGMDYWGQGTSVTVSS
VL: DIVMTQSPSSLSVSAGEKVTMSCKSSQSLLNSGNQKNYLAWYQQKPGQPPKLLIYGASTRKSGVPDRFTGSGSGTDFTLTISSVQAEDLAVYYCQNDHSFPCTFGGGTKLEIKR
notes: Murine hybridoma mAb
Turning to B8, the Kd in the test with human Gro-beta [6] is < 0.00962 nM; in the test with human ENA-78 [7], 10.1 nM; with human IL-8 [8], 0.69 nM; in the test with human ENA-78 [10], 9 nM; in the test with human IL-8 [11], 5.89 nM; with human Gro-beta [24] it was 0.639 nM. In addition, the kon stood at 1.04e+06 M⁻¹ s⁻¹ with human Gro-beta [6]; 301000 M⁻¹ s⁻¹ with human ENA-78 [7]; 723000 M⁻¹ s⁻¹ with human IL-8 [8]; 299000 M⁻¹ s⁻¹ with human ENA-78 [10]; 627000 M⁻¹ s⁻¹ with human IL-8 [11]; 1.55e+06 M⁻¹ s⁻¹ with human Gro-beta [24]. The koff with human ENA-78 [7] is 0.00302 s⁻¹; with human IL-8 [8] it was 0.000499 s⁻¹; with human ENA-78 [10] it was 0.00269 s⁻¹; with human IL-8 [11] it was 0.00369 s⁻¹; with human Gro-beta [23] it was < 1e-05 s⁻¹; in the test with human Gro-beta [24] it was 0.000993 s⁻¹.

In general, Kd refers to the concentration at which binding is half-saturated. Low values mean tighter binding, high ones weaker binding. Usually koff stands for the first-order rate constant of dissociation. Read a low koff as a long-lived complex. One may read the kon as a measure of how fast the partners come together. A lower kon goes with slow association. What is called EC50 (read off the curve) is the concentration that produces a half-maximal response. Higher therefore signals lower potency in that assay.

For the origin of these results see patent US20080262203A1 (published 2008).
